Results on two substances are retold here after patent publication US20220411475A1.

In assay [1] the target is PreS1 synthetic peptide p(18-25) (Hepatitis B virus (ayw)). Description: solid-phase ELISA, antigen on plate.
Assay [2] deals with PreS1-WHc VLP-1.4 (15-31) (Woodchuck hepatitis virus; Hepatitis B virus (ayw)) (UniProt P0C6J2). Put plainly: solid-phase ELISA, antigen on plate.
The target of assay [3] is PreS1-WHc VLP-1.9 (83-106-NH2/1-25-loop). Description: solid-phase ELISA, antigen on plate. Background: An ELISA detects its analyte on a solid surface through an enzyme-linked reagent.
The target of assay [4] is myristoylated rPreS1/PreS2 protein (Hepatitis B virus (ayw)) (UniProt P03138). Description: solid-phase ELISA, antigen on plate.
Assay [5] addresses combination of VLPs 1.6+1.9. Description: solid-phase ELISA, antigen on plate.
Assay [6] concerns the target PreS1-WHc VLP-1.1+ (19-43) (Woodchuck hepatitis virus; Hepatitis B virus (ayw)). Put plainly: solid-phase ELISA, antigen on plate.
Assay [7] addresses PreS1-WHc VLP-1.3+ (1-25) (Woodchuck hepatitis virus; Hepatitis B virus (ayw)). Description: solid-phase ELISA, antigen on plate.
The target in assay [8] is purified HBV virions (Hepatitis B virus). Put plainly: solid-phase ELISA, antigen on plate.
The target in assay [9] is PreS1-WHc VLP-1.6 (15-40). Put plainly: solid-phase ELISA, antigen on plate.
For assay [10], the target named is PreS1 synthetic peptide p(1-36) (Hepatitis B virus (ayw)). Put plainly: solid-phase ELISA, antigen on plate.
Assay [11] has as its target recombinant (r) PreS1/PreS2 protein (Hepatitis B virus (ayw)) (UniProt P03138). Put plainly: solid-phase ELISA, antigen on plate.
Assay [12] deals with PreS1-WHc VLP-1.5 (1-34) (Woodchuck hepatitis virus; Hepatitis B virus (ayw)). Put plainly: solid-phase ELISA, antigen on plate.
The target of assay [13] is PreS1-WHc VLP-1.4+ (15-34) (Woodchuck hepatitis virus; Hepatitis B virus (ayw)). Description: solid-phase ELISA, antigen on plate.
In assay [14] the target is HDV particles coated with HBV envelope proteins (L/M/S HBsAg/ay) (Hepatitis B virus genotype D, subtype ayw) (UniProt P03138). Description: cell-based or functional assay.
The target of assay [15] is PreS1 synthetic peptide p(21-42) (Hepatitis B virus (ayw)). Description: solid-phase ELISA, antigen on plate.
For assay [16], the target named is PreS1-WHc VLP-1.1 (21-43) (Woodchuck hepatitis virus; Hepatitis B virus (ayw)). Put plainly: solid-phase ELISA, antigen on plate.

Consider PreS1-specific Mab 18/7 (antibody), for which the Min binding conc. is 8 ng/mL in assay [1]; 0.3 ng/mL in assay [2]; 1.6 ng/mL in assay [3]; 0.3 ng/mL in [4]; 0.3 ng/mL in [5]; 0.3 ng/mL in assay [6]. The Min binding conc. in assay [7] came out at 1.6 ng/mL; in assay [8], 2 ng/mL; in assay [9] it was 0.3 ng/mL; in assay [10], 1.6 ng/mL; in assay [11], 0.3 ng/mL; in assay [12], 0.3 ng/mL. The substance further yielded a Min binding conc. in [13] of 8 ng/mL. The same substance yielded a higher stringency neutralization assay, complete neutralization in assay [14] greater than 5 µg/mL. This substance also showed a neutralization of HDV-HBV infection of HepaRG cells (intracellular HDV RNA) in assay [14] of less than 0.05 µg/mL.

For the substance PreS1-specific Mab KR-127 (antibody), the Min binding conc. in [15] came out at 1.6 ng/mL; in assay [4], 1.6 ng/mL; in assay [5], 1.6 ng/mL; in [6] it was 1000 ng/mL; in assay [8], 75 ng/mL; in [16], 1.6 ng/mL. Further, the Min binding conc. in [9] was found to be 1.6 ng/mL; in assay [10], 1.6 ng/mL; in assay [11], 1.6 ng/mL; in assay [13] it was 8 ng/mL.
